Source: US6951919 (MOCHIDA PHARMACEUTICAL, dated 2005)

T1: Fas on mouse W4 cells (mouse WR19L cell transformants that overexpress Fas) (UniProt P25446 22-327, limits assumed)
T1 sequence (looked up): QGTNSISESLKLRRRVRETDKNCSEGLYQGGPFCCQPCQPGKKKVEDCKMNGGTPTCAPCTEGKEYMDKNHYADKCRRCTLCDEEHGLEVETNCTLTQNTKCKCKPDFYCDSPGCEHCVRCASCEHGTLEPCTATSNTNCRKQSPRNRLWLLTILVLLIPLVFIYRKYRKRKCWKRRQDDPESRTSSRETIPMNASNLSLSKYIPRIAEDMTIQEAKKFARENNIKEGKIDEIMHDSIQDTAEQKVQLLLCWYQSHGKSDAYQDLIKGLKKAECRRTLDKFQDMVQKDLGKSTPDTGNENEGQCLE

T2: Fas expressed endogenously on human Jurkat cells (human, UniProt P25445 26-335)
T2 sequence (looked up): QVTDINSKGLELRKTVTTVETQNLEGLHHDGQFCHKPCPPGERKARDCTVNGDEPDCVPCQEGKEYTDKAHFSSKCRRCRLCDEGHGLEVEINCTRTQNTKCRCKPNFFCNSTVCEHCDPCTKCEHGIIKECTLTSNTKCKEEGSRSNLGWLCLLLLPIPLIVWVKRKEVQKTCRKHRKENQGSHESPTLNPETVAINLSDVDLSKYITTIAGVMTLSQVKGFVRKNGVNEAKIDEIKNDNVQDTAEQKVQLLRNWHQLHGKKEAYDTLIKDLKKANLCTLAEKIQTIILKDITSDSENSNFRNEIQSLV

B1: human soluble Fas ligand, P48023 130-281 (ligand)
chain: QIGHPSPPPEKKELRKVAHLTGKSNSRSMPLEWEDTYGIVLLSGVKYKKGGLVINETGLYFVYSKVYFRGQSCNNLPLSHKVYMRNSKYPQDLVMMEGKMMSYCTTGQMWARSSYLGAVFNLTSADHLYVNVSELSLVNFEESQTFFGLYKL
B2: D4 deletion mutant of human FasL (amino acids 8-69 and 111-133 deleted) (ligand)
chain: MQQPFNYPLKKRGNHSTGLCLLVMFFMVLVALVGLGLGMFQLFHLQKEPSPPPEKKELRKVAHLTGKSNSRSMPLEWEDTYGIVLLSGVKYKKGGLVINETGLYFVYSKVYFRGQSCNNLPLSHKVYMRNSKYPQDLVMMEGKMMSYCTTGQMWARSSYLGAVFNLTSADHLYVNVSELSLVNFEESQTFFGLYKL

How the values were obtained:
Experiment in all cases: cell-based or functional assay
[1] = target: Fas expressed endogenously on mouse primary hepatocytes (mouse), P25446
[2] = target: T1, Fas on mouse W4 cells (mouse WR19L cell …)
[3] = target: T2, Fas expressed endogenously on human …

Binder	concentration of soluble FasL that blocks half of the cytotoxic activity of membrane-bound FasL (D4 mutant) on mouse hepatocytes at E/T 2.0, GOT release [1] [µg/mL]	specific killing of W4 cells at an E/T ratio of 5.0, 51Cr-release [2] [%]	specific killing of Jurkat cells at an E/T ratio of 3.0, 51Cr-release [3] [%]
B1	0.4		
B2		~50	≥ 20
